This passage reports Km results from article PMC7396682, “Effect of a Novel Alpha/Beta Hydrolase Domain Protein on Tolerance of K. marxianus to Lignocellulosic Biomass Derived Inhibitors” (Frontiers in Bioengineering and Biotechnology, 2020).

Numbering of substitutions follows the chain as printed. In names and notes the source's numbering stands.

What all share (assay): purified protein
Common to all, as to format: biochemical, Kluyveromyces marxianus

Substrate in data set [1]: CC(=O)Oc1ccc([N+](=O)[O-])cc1
The conditions noted are these: 50 mM Tris-HCl, pH 8.0, 37 °C.

Substrate in data set [2]: CC(C)(COP(=O)(O)OP(=O)(O)OC[C@H]1O[C@@H](n2cnc3c(N)ncnc32)[C@H](O)[C@@H]1OP(=O)(O)O)[C@@H](O)C(=O)NCCC(=O)NCCSC(=O)CCC(=O)O
As to conditions: 100 mM HEPES, pH 8.0, 37 °C, 1 mM DTNB.

Substrate in data set [3]: CCCCCCCCCC(=O)SCCNC(=O)CCNC(=O)[C@H](O)C(C)(C)COP(=O)(O)OP(=O)(O)OC[C@H]1O[C@@H](n2cnc3c(N)ncnc32)[C@H](O)[C@@H]1OP(=O)(O)O
The conditions noted are these: 100 mM HEPES, pH 8.0, 37 °C, 1 mM DTNB.

Substrate in data set [4]: CCCC(=O)SCCNC(=O)CCNC(=O)[C@H](O)C(C)(C)COP(=O)(O)OP(=O)(O)OC[C@H]1O[C@@H](n2cnc3c(N)ncnc32)[C@H](O)[C@@H]1OP(=O)(O)O
As to conditions: 100 mM HEPES, pH 8.0, 37 °C, 1 mM DTNB.

Substrate in data set [5]: CCCC(=O)Oc1ccc([N+](=O)[O-])cc1
As to conditions: 50 mM Tris-HCl, pH 8.0, 37 °C.

B1: KmYME (Kluyveromyces marxianus DMKU3-1042) (protein)
chain: MLLAYTVRPSNWSFTRRAYSATARAFNQQKGLLPLPIKETVDMAYDLHLPERSVIGKMPYHSPEPIIFYHGLLGSKRNYRHDCKKLATALQTPVYTVDIRNHGSSEHALPFDYNTLVNDLVHFAETHSLGKVNLVGYSLGAKVAMLACLKHPERFSAACIIDNSPEEQPHIKPLLTALVKSCVKLLDHHNVRADDKLWRHKASEALKKYIPDAGIRYYLLSNIINNPRVVEYRSPVINYDDGMLHFKNPVRHMMDFVTKEVAAWPTQELEGKQFLGPVNFIKATRSDFINPKSLQAINQYFPYHNIDEINATHFILNERPQEYLRAVTDFFKVTRYQLEKKREQDLAKIDQLNASESLKSARD
notes: expressed from pWD010 (T7 promoter) in E. coli BL21(DE3), nickel-column purified (tag not described); native full length 360 aa
The Km is the concentration of substrate that gives half-maximal velocity. As for B1, the Km in the data set “purified protein [1]” worked out at 189.73 ± 12.20 µM; in “purified protein [2]”, 387.58 ± 3.42 µM; in “purified protein [3]”, 329.20 ± 12.75 µM; in “purified protein [4]”, 468.44 ± 20.62 µM; in “purified protein [5]” it was 258.41 ± 5.97 µM.

B2: KmYME (Kluyveromyces marxianus DMKU3-1042; L139M/Y137H) (protein)
chain: B1 chain with Y137H, L139M
notes: as for B1
Take B2: the Km amounted to 193.89 ± 10.00 µM in “purified protein [1]”; 1022.84 ± 145.83 µM in “purified protein [2]”; 449.88 ± 87.78 µM in “purified protein [3]”; 1138.20 ± 185.83 µM in the data set “purified protein [4]”; 685.66 ± 34.83 µM in the data set “purified protein [5]”.
